Kd data for eleven sequences are collected here from the Immune Epitope Database (IEDB).

pKd: −log10 of the molar value.

One assay addresses HLA-A*02:03. Put plainly: IEDB peptide-MHC binding, purified MHC/direct/fluorescence; filed as Kd, often an IC50 or EC50 that approximates it; ≥ and ≤ were set here for values at or beyond the usual limits of such assays. The settings on record: source organism: Zaire ebolavirus.
Another assay deals with HLA-A*02:12. The assay is described as above. Particulars: source organism: Zaire ebolavirus.
The target in a further assay is HLA-A*02:16. Described as above. The settings on record: source organism: Zaire ebolavirus.
The next assay has as its target HLA-A*02:19. The description is as above. The settings on record: source organism: Zaire ebolavirus.
Another assay concerns the target HLA-A*03:01. The description is as above.
In another assay the target is HLA-A*24:03. The assay is described as above. Particulars: source organism: Zaire ebolavirus.
A further assay deals with HLA-A*29:02. The assay is described as above.
Another assay concerns the target HLA-A*68:02. The description is as above. The settings on record: source organism: Zaire ebolavirus.
The next assay addresses HLA-B*27:05. The description is as above.
In assay [1] the target is HLA-A*02:01. Put plainly: IEDB peptide-MHC binding, purified MHC/competitive/fluorescence; filed as Kd, often an IC50 or EC50 that approximates it; ≥ and ≤ were set here for values at or beyond the usual limits of such assays.
The target in a further assay is HLA-A*26:01. The description is as above.
Assay [2] concerns the target HLA-A*69:01. The assay is described as above.
The target in assay [3] is HLA-B*15:01. The assay is described as above.
The target in another assay is HLA-B*15:17. Described as above.
For assay [4], the target named is HLA-B*18:01. Described as above.
In assay [5] the target is HLA-B*39:01. The assay is described as above.
Assay [6] deals with HLA-B*46:01. Described as above.
Another assay concerns the target HLA-B*51:01. The assay is described as above.
Assay [7] concerns the target HLA-B*57:01. Described as above.
The target in another assay is HLA-A*01:01. Put plainly: IEDB peptide-MHC binding, purified MHC/direct/fluorescence; filed as Kd, often an IC50 or EC50 that approximates it; ≥ and ≤ were set here for values at or beyond the usual limits of such assays.
The target of assay [8] is HLA-A*02:01. The assay is described as above.
For the next assay, the target named is HLA-A*11:01. Described as above.
For a further assay, the target named is HLA-A*31:01. Described as above.
For assay [9], the target named is HLA-A*69:01. The assay is described as above.
The target of assay [10] is HLA-B*15:01. The assay is described as above. The settings on record: source organism: Yellow fever virus.
Assay [11] deals with HLA-B*18:01. The assay is described as above.
In a further assay the target is HLA-B*40:01. The description is as above.
A further assay addresses HLA-B*44:02. The description is as above. Particulars: source organism: Yellow fever virus.
For assay [12], the target named is HLA-B*46:01. Described as above.
The next assay concerns the target HLA-B*48:01. The description is as above.
Assay [13] concerns the target HLA-B*57:01. The description is as above.
The target in a further assay is HLA-B*58:01. The description is as above.
For another assay, the target named is HLA-B*15:42. Briefly: IEDB peptide-MHC binding, purified MHC/competitive/fluorescence; filed as Kd, often an IC50 or EC50 that approximates it; ≥ and ≤ were set here for values at or beyond the usual limits of such assays.
A further assay has as its target HLA-B*45:06. The description is as above.
Another assay deals with HLA-B*83:01. Described as above.
Another assay concerns the target HLA-B*27:03. The assay is described as above. Particulars: source organism: Homo sapiens.
In the next assay the target is HLA-C*15:02. Briefly: IEDB peptide-MHC binding, purified MHC/direct/fluorescence; filed as Kd, often an IC50 or EC50 that approximates it; ≥ and ≤ were set here for values at or beyond the usual limits of such assays.
The target in assay [14] is HLA-B*39:01. The description is as above. Particulars: source organism: Camelpox virus M-96.
[15] abbreviates: source organism: Zaire ebolavirus.
The mark [16] stands for this setting: source organism: Yellow fever virus.
Setting [17] is: source organism: human gammaherpesvirus 4.
The mark [18] stands for this setting: source organism: Mycobacterium tuberculosis C.
Where [19] appears, read: source organism: Camelpox virus M-96.
The mark [20] stands for this setting: source organism: West Nile virus.
Setting [21] is: source organism: Orthohantavirus hantanense.

For the sequence KRLQILGYL, the negative-log Kd (pKd) with HLA-A*02:03, in the assay with HLA-A*02:12, with HLA-A*02:16, with HLA-A*02:19, with HLA-A*03:01 (setting [15]) and in the assay with HLA-A*24:03 was no more than 4.70 each time. The pKd with HLA-A*29:02 (setting [15]) is no more than 4.70; in the assay with HLA-A*68:02 it was no more than 4.70; in the assay with HLA-B*27:05 (source organism: Sudan ebolavirus - Maleo (1979)) it was 6.69; in the assay with HLA-A*02:01 [1] (setting [15]) it was no more than 4.70; with HLA-A*26:01 (setting [15]), no more than 4.70; with HLA-A*69:01 [2] (setting [15]), no more than 4.70. Also, the pKd with HLA-B*15:01 [3] (setting [15]), with HLA-B*15:17 (setting [15]), in the assay with HLA-B*18:01 [4] (setting [15]), in the assay with HLA-B*39:01 [5] (setting [15]), with HLA-B*46:01 [6] (setting [15]) and with HLA-B*51:01 (setting [15]) was no more than 4.70 in each case. In the assay with HLA-B*57:01 [7] (setting [15]), this sequence had a pKd of no more than 4.70.
In the case of SCRVKLSAL, the pKd with HLA-A*01:01 (setting [16]), with HLA-A*02:01 [8] (setting [16]), with HLA-A*03:01 (setting [16]), with HLA-A*11:01 (setting [16]), with HLA-A*29:02 (setting [16]) and in the assay with HLA-A*31:01 (setting [16]) was no more than 4.70 each time. For the same sequence, the negative-log Kd (pKd) in the assay with HLA-A*69:01 [9] (setting [16]), with HLA-B*15:01 [10], with HLA-B*18:01 [11] (setting [16]), with HLA-B*27:05 (setting [16]), in the assay with HLA-B*40:01 (setting [16]) and with HLA-B*44:02 was no more than 4.70 in each case. In addition, the pKd in the assay with HLA-B*46:01 [12] (setting [16]), in the assay with HLA-B*48:01 (setting [16]), with HLA-B*57:01 [13] (setting [16]) and in the assay with HLA-B*58:01 (setting [16]) was no more than 4.70 in each case.
In the case of TEMYIMYAM, the negative-log Kd (pKd) with HLA-B*15:42 (setting [17]), with HLA-B*45:06 (setting [17]) and with HLA-B*83:01 (setting [17]) was no more than 5.30 in each case.
With RPMLARLTV, the negative-log Kd (pKd) in the assay with HLA-B*15:42 (setting [18]) was no more than 5.30; in the assay with HLA-B*45:06 (setting [18]), no more than 5.30; with HLA-B*83:01 (setting [18]), 6.73.
Regarding NSNINVINY, the pKd with HLA-A*01:01 (setting [19]) is 5.26; with HLA-A*02:01 [8] (setting [19]), no more than 4.70; with HLA-A*03:01 (setting [19]), no more than 4.70; with HLA-A*11:01 (setting [19]), no more than 4.70; in the assay with HLA-A*31:01 (setting [19]) it was no more than 4.70; with HLA-A*69:01 [9] (setting [19]), no more than 4.70. Besides, the pKd with HLA-B*18:01 [11] (setting [19]), in the assay with HLA-B*27:05 (setting [19]), with HLA-B*40:01 (setting [19]), with HLA-B*46:01 [12] (setting [19]), with HLA-B*48:01 (setting [19]) and with HLA-B*57:01 [13] (setting [19]) was no more than 4.70 throughout. Further, the negative logarithm of the Kd (pKd) with HLA-B*58:01 (setting [19]) and in the assay with HLA-B*15:17 (source organism: Vaccinia virus WR) was no more than 4.70 in each case.
Consider VTENKKIQY, for which the negative-log Kd (pKd) with HLA-A*02:01 [1] (source organism: Homo sapiens), in the assay with HLA-A*26:01 (source organism: Homo sapiens), in the assay with HLA-A*69:01 [2] (source organism: Homo sapiens), with HLA-B*15:01 [3] (source organism: Homo sapiens), in the assay with HLA-B*15:17 (source organism: Homo sapiens) and in the assay with HLA-B*18:01 [4] (source organism: Homo sapiens) was no more than 4.70 in each case. Moreover, the pKd with HLA-B*27:03, in the assay with HLA-B*39:01 [5] (source organism: Homo sapiens), in the assay with HLA-B*46:01 [6] (source organism: Homo sapiens), with HLA-B*51:01 (source organism: Homo sapiens) and with HLA-B*57:01 [7] (source organism: Homo sapiens) was no more than 4.70 each time.
For the sequence RLARAIIEL, the pKd with HLA-A*69:01 [9] (setting [20]) is 5.42; with HLA-C*15:02 (setting [20]), 5.62.
Take YHDDDNTTT: the pKd in the assay with HLA-B*39:01 [14] is 6.46.
Turning to FQWHEAMFL, the negative logarithm of the Kd (pKd) with HLA-A*02:01 [8] (source organism: Homo sapiens) is 9.70; in the assay with HLA-A*26:01 (source organism: Homo sapiens), no more than 4.70; with HLA-A*69:01 [2] (source organism: Homo sapiens) it was no more than 4.70; with HLA-B*15:17 (source organism: Homo sapiens), no more than 4.70; with HLA-B*27:03, no more than 4.70; with HLA-B*46:01 [6] (source organism: Homo sapiens), no more than 4.70. Moreover, the negative logarithm of the Kd (pKd) with HLA-B*51:01 (source organism: Homo sapiens) and with HLA-B*57:01 [7] (source organism: Homo sapiens) was no more than 4.70 each time.
KSLQTTRRF showed a pKd in the assay with HLA-C*15:02 (source organism: Histophilus somni 129PT) of 6.58.
Regarding ISNQEPLKL, the pKd is 4.73 with HLA-A*11:01 (setting [21]), 6.98 in the assay with HLA-B*58:01 (setting [21]) and 8.05 with HLA-C*15:02 (source organism: Orthohantavirus dobravaense).

What is called pKd is the negative decadic logarithm of the Kd, by convention in mol/L. Higher therefore signals a low Kd.
